Results on 12 variants are retold here after paper PMC10611751 (2023).

First the molecules themselves.
B1: E-cadherin residues 755-770 (site-1) [mouse] / Ankyrin-G 24 ANK repeats (residues 38-855) [not stated] (parent complex)
chain 1: YYYDEEGGGEEDQDFD
chain 2: KSDANASYLRAARAGHLEKALDYIKNGVDVNICNQNGLNALHLASKEGHVEVVSELLQREANVDAATKKGNTALHIASLAGQAEVVKVLVTNGANVNAQSQNGFTPLYMAAQENHLEVVRFLLDNGASQSLATEDGFTPLAVALQQGHDQVVSLLLENDTKGKVRLPALHIAARKDDTKAAALLLQNDTNADIESKMVVNRATESGFTPLHIAAHYGNINVATLLLNRAAAVDFTARNDITPLHVASKRGNANMVKLLLDRGAKIDAKTRDGLTPLHCGARSGHEQVVEMLLDRAAPILSKTKNGLSPLHMATQGDHLNCVQLLLQHNVPVDDVTNDYLTALHVAAHCGHYKVAKVLLDKKANPNAKALNGFTPLHIACKKNRIRVMELLLKHGASIQAVTESGLTPIHVAAFMGHVNIVSQLMHHGASPNTTNVRGETALHMAARSGQAEVVRYLVQDGAQVEAKAKDDQTPLHISARLGKADIVQQLLQQGASPNAATTSGYTPLHLSAREGHEDVAAFLLDHGASLSITTKKGFTPLHVAAKYGKLEVASLLLQKSASPDAAGKSGLTPLHVAAHYDNQKVALLLLDQGASPHAAAKNGYTPLHIAAKKNQMDIATSLLEYGADANAVTRQGIASVHLAAQEGHVDMVSLLLSRNANVNLSNKSGLTPLHLAAQEDRVNVAEVLVNQGAHVDAQTKMGYTPLHVGCHYGNIKIVNFLLQHSAKVNAKTKNGYTPLHQAAQQGHTHIINVLLQNNASPNELTVNGNTALAIARRLGYISVVDTLKVVTEEIMTTTTITEKHKMNVPETMNEVLDMS
B2: E-cadherin residues 854-869 (site-3) [mouse] / Ankyrin-G 24 ANK repeats (residues 38-855) [not stated] (parent complex)
chain 1: ESDQDQDYDYLNEWGN
chain 2: B1 chain 2
B3: E-cadherin residues 828-842 (site-2) [mouse] / Ankyrin-G 24 ANK repeats (residues 38-855) [not stated] (parent complex)
chain 1: PYDSLLVFDYEGSGS
chain 2: B1 chain 2

In the first assay the parent is B1. The assay is described as follows: ITC; parent: 900 nM. On the technique in general: Isothermal titration calorimetry measures the heat released or taken up as one component is titrated into another.
The Kd is the equilibrium constant for the complex coming apart. For chain 1 AAYDEEGGGEEDQDFD [chain 1 Y1A, chain 1 Y2A], the dissociation constant (Kd) is 4.2 µM.

chain 1 YAYDEEGGGEEDQDFD [chain 1 Y2A]: the Kd stood at 2.2 µM.

As for chain 1 AYYDEEGGGEEDQDFD [chain 1 Y1A], the Kd is 5 µM.

Turning to chain 1 AYADEEGGGEEDQDFD [chain 1 Y1A, chain 1 Y3A], the Kd turned out to be 4.1 µM.

Take chain 1 YYADEEGGGEEDQDFD [chain 1 Y3A]: the Kd came to 2.2 µM.

As for chain 1 YAADEEGGGEEDQDFD [chain 1 Y2A, chain 1 Y3A], the Kd was found to be 7.1 µM.

Variants of B2 are the subject of the next assay. The experiment in a line: ITC; parent: 1.8e+03 nM.
On to chain 1 ESDQDQDADYLNEWGN [chain 1 Y8A], for which the dissociation constant (Kd) worked out at 3.2 µM.

As to chain 1 ESDQDQDYDYLNEAGN [chain 1 W14A], the dissociation constant Kd turned out to be 3.9 µM.

For chain 1 ESDQDQDYDALNEWGN [chain 1 Y10A], the Kd is 3.9 µM.

For the variant chain 1 ESDQDQDADALNEWGN [chain 1 Y8A, chain 1 Y10A], the Kd turned out to be 5.8 µM.

In the next assay the parent is B3. The experiment in a line: ITC; parent: 1.9e+03 nM.
chain 1 PADSLLVFDYEGSGS [chain 1 Y2A]: the Kd worked out at 1.7 µM.

Regarding chain 1 PYDSLLVFDAEGSGS [chain 1 Y10A], the Kd was determined as 9.5 µM.
